Publication PMC9703647 (Nature, 2022)

Target: the molecule itself
Assay: cross-linking

B1: GSDMA_(1–246) (domain or fragment, human, UniProt Q96QA5 1-246, looked up)
chain: MTMFENVTRALARQLNPRGDLTPLDSLIDFKRFHPFCLVLRKRKSTLFWGARYVRTDYTLLDVLEPGSSPSDPTDTGNFGFKNMLDTRVEGDVDVPKTVKVKGTAGLSQNSTLEVQTLSVAPKALETVQERKLAADHPFLKEMQDQGENLYVVMEVVETVQEVTLERAGKAEACFSLPFFAPLGLQGSINHKEAVTIPKGCVLAFRVRQLMVKGKDEWDIPHICNDNMQTFPPGEKSGEEKVILIQ
binding result: binds
